Laboratory results from the supplement of paper PMC5998384.

How the values were obtained:
HeLa Kyoto [1] = experiment: solubility change mitosis vs G1/S (difference of NP-40 vs SDS log2 ratios) (log2 ratio difference); higher = more soluble in mitosis
HeLa Kyoto [2] = experiment: solubility in G1/S (NP-40 vs SDS abundance) (log2 ratio); higher = more soluble; details: cell cycle stage: G1/S
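Wherever solubility change mitosis vs G1/S (difference of NP-40 vs SDS log2 ratios) is given: synchronized HeLa Kyoto cells (double thymidine block for G1/S, nocodazole release for mitosis), protein amounts in NP-40 versus SDS lysates quantified by mass spectrometry, three biological replicates.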
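Wherever solubility in G1/S (NP-40 vs SDS abundance) is given: HeLa Kyoto cells arrested at G1/S by double thymidine block, proteins quantified by TMT10plex mass spectrometry in mild NP-40 versus SDS extracts, three biological replicates.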

Row | Substance | solubility change mitosis (log2) (HeLa Kyoto [1]) | solubility in G1/S (log2) (HeLa Kyoto [2])
1 | MERMNWLSRLASRGPGHRIPQGANLQTPVMADPETCLMVFKNHWSQVVRILERQGPRAAPGGADDLSAVRNHTYQMLTLLAEDRAVPSAPTGPGPLLEFALHEDLLTRVLTWQLQWDELGDGVEERRAEQLKLFEMLVSEARQPLLRHGPVREALLTLLDACGRPVPSSPALDEGLVLLLSQLCVCVAQEPSLLEFFLQPPPEPGAAPRLLLFSRLVPFVHREGTLGQQARDALLLLMALSAGSPTVGRYIADHSYFCPVLATGLSALYSSLPRKIEVPGDDWHCLRREDWLGVPALALFMSSLEFCNAVIQVAHPLVQKQLVDYIHNGFLVPVMGPALHKTSVEEMIASTAYLELFLRSISEPALLRTFLRFLLLHRHDTHTILDTLVARIGSNSRLCMVSLSLFRTLLNLSCEDVLLQLVLRYLVPCNHVMLSQKPAVRDVDLYGRAADKFLSLIPRCCRHHAPSPPRPEHASWARGPGSPSVDSSSVTTVPRPSTPSRLALFLRQQSLGGSESPGPAPCSPGLSASPASSPGRRPTPAEEPGELEDNYLEYLREARRGVDRCVRACRTWSAPYDGERPSPEPSPFGSRTKKRSLLPEEDRNNVGEGEEEELGRRGRAGGAGEGPGHLPPPQLNGVPGSWPEGAKKVRLVPKEGAGELLEGISEGMAGLEGFGQELRELEVALSNGGTGSESPLEPPLPLEEEEAYESFTCPPEPPGPFLSSPLRTLNQLPSQPFTGPFMAVLFAKLENMLQNSVYVNFLLTGLVAQLACHPQPLLRSFLLNTNMVFQPSVKSLLQVLGSVKNKIENFAASQEDFPALLSKAKKYLIARGKLDWAEGPAAGPAPRRSDPLVKSRRPSLGELLLRHAHSPTRARQAAQLVLQPGRDGAGLGLSGGSPGASTPVLLTRGGAPERQGEALRVKNAVYCAVIFPEFLKELAAISQAHAVTSPFLLETSEEGSGPLISGCGPLNP [FAM160A2] | 0.0167 | 0.177
2 | MPLTGVGPGSCRRQIIRALCLLLLLLHAGSAKNIWKRALPARLAEKSRAEEAGAPGGPRQPRADRCPPPPRTLPPGACQAARCQADSECPRHRRCCYNGCAYACLEAVPPPPVLDWLVQPKPRWLGGNGWLLDGPEEVLQAEACSTTEDGAEPLLCPSGYECHILSPGDVAEGIPNRGQCVKQRRQADGRILRHKLYKEYPEGDSKNVAEPGRGQQKHFQ [WFDC1] | 0.522 | 0.101
3 | MEEKYGGDVLAGPGGGGGLGPVDVPSARLTKYIVLLCFTKFLKAVGLFESYDLLKAVHIVQFIFILKLGTAFFMVLFQKPFSSGKTITKHQWIKIFKHAVAGCIISLLWFFGLTLCGPLRTLLLFEHSDIVVISLLSVLFTSSGGGPAKTRGAAFFIIAVICLLLFDNDDLMAKMAEHPEGHHDSALTHMLYTAIAFLGVADHKGGVLLLVLALCCKVGFHTASRKLSVDVGGAKRLQALSHLVSVLLLCPWVIVLSVTTESKVESWFSLIMPFATVIFFVMILDFYVDSICSVKMEVSKCARYGSFPIFISALLFGNFWTHPITDQLRAMNKAAHQESTEHVLSGGVVVSAIFFILSANILSSPSKRGQKGTLIGYSPEGTPLYNFMGDAFQHSSQSIPRFIKESLKQILEESDSRQIFYFLCLNLLFTFVELFYGVLTNSLGLISDGFHMLFDCSALVMGLFAALMSRWKATRIFSYGYGRIEILSGFINGLFLIVIAFFVFMESVARLIDPPELDTHMLTPVSVGGLIVNLIGICAFSHAHSHAHGASQGSCHSSDHSHSHHMHGHSDHGHGHSHGSAGGGMNANMRGVFLHVLADTLGSIGVIVSTVLIEQFGWFIADPLCSLFIAILIFLSVVPLIKDACQVLLLRLPPEYEKELHIALEKIQKIEGLISYRDPHFWRHSASIVAGTIHIQVTSDVLEQRIVQQVTGILKDAGVNNLTIQVEKEAYFQHMSGLSTGFHDVLAMTKQMESMKYCKDGTYIM [SLC30A5] | -0.241 | -0.143
4 | MDEQEALNSIMNDLVALQMNRRHRMPGYETMKNKDTGHSNRQSDVRIKFEHNGERRIIAFSRPVKYEDVEHKVTTVFGQPLDLHYMNNELSILLKNQDDLDKAIDILDRSSSMKSLRILLLSQDRNHNSSSPHSGVSRQVRIKASQSAGDINTIYQPPEPRSRHLSVSSQNPGRSSPPPGYVPERQQHIARQGSYTSINSEGEFIPETSEQCMLDPLSSAENSLSGSCQSLDRSADSPSFRKSRMSRAQSFPDNRQEYSDRETQLYDKGVKGGTYPRRYHVSVHHKDYSDGRRTFPRIRRHQGNLFTLVPSSRSLSTNGENMGLAVQYLDPRGRLRSADSENALSVQERNVPTKSPSAPINWRRGKLLGQGAFGRVYLCYDVDTGRELASKQVQFDPDSPETSKEVSALECEIQLLKNLQHERIVQYYGCLRDRAEKTLTIFMEYMPGGSVKDQLKAYGALTESVTRKYTRQILEGMSYLHSNMIVHRDIKGANILRDSAGNVKLGDFGASKRLQTICMSGTGMRSVTGTPYWMSPEVISGEGYGRKADVWSLGCTVVEMLTEKPPWAEYEAMAAIFKIATQPTNPQLPSHISEHGRDFLRRIFVEARQRPSAEELLTHHFAQLMY [MAP3K3] | -0.169 | 0.569
5 | MGA | 0.233 | -0.38
6 | MGTFCSVIKFENLQELKRLCHWGPIIALGVIAICSTMAMIDSVLWYWPLHTTGGSVNFIMLINWTVMILYNYFNAMFVGPGFVPLGWKPEISQDTMYLQYCKVCQAYKAPRSHHCRKCNRCVMKMDHHCPWINNCCGYQNHASFTLFLLLAPLGCIHAAFIFVMTMYTQLYHRLSFGWNTVKIDMSAARRDPLPIVPFGLAAFATTLFALGLALGTTIAVGMLFFIQMKIILRNKTSIESWIEEKAKDRIQYYQLDEVFVFPYDMGSRWRNFKQVFTWSGVPEGDGLEWPVREGCHQYSLTIEQLKQKADKRVRSVRYKVIEDYSGACCPLNKGIKTFFTSPCTEEPRIQLQKGEFILATRGLRYWLYGDKILDDSFIEGVSRIRGWFPRKCVEKCPCDAETDQAPEGEKKNR [ZDHHC6] | -0.272 | -0.0586
7 | MEELSSVGEQVFAAECILSKRLRKGKLEYLVKWRGWSSKHNSWEPEENILDPRLLLAFQKKEHEKEVQNRKRGKRPRGRPRKLTAMSSCSRRSKLKEPDAPSKSKSSSSSSSSTSSSSSSDEEDDSDLDAKRGPRGRETHPVPQKKAQILVAKPELKDPIRKKRGRKPLPPEQKATRRPVSLAKVLKTARKDLGAPASKLPPPLSAPVAGLAALKAHAKEACGGPSAMATPENLASLMKGMASSPGRGGISWQSSIVHYMNRMTQSQAQAASRLALKAQATNKCGLGLDLKVRTQKGELGMSPPGSKIPKAPSGGAVEQKVGNTGGPPHTHGASRVPAGCPGPQPAPTQELSLQVLDLQSVKNGMPGVGLLARHATATKGVPATNPAPGKGTGSGLIGASGATMPTDTSKSEKLASRAVAPPTPASKRDCVKGSATPSGQESRTAPGEARKAATLPEMSAGEESSSSDSDPDSASPPSTGQNPSVSVQTSQDWKPTRSLIEHVFVTDVTANLITVTVKESPTSVGFFNLRHY [CBX2] | 0.268 | -0.63
8 | MATSLDFKTYVDQACRAAEEFVNIYYETMDKRRRALTRLYLDKATLIWNGNAVSGLDALNNFFDTLPSSEFQVNMLDCQPVHEQATQSQTTVLVVTSGTVKFDGNKQHFFNQNFLLTAQSTPNNTVWKIASDCFRFQDWSSS [NXT2] | 0.401 | -0.596
9 | MAKGRVAERSQLGAHHTTPVGDGAAGTRGLAAPGSRDHQKEKSWVEAGSARMSLLILVSIFLSAAFVMFLVYKNFPQLSEEERVNMKVPRDMDDAKALGKVLSKYKDTFYVQVLVAYFATYIFLQTFAIPGSIFLSILSGFLYPFPLALFLVCLCSGLGASFCYMLSYLVGRPVVYKYLTEKAVKWSQQVERHREHLINYIIFLRITPFLPNWFINITSPVINVPLKVFFIGTFLGVAPPSFVAIKAGTTLYQLTTAGEAVSWNSIFILMILAVLSILPAIFQKKLKQKFE [TMEM41B] | 0.0116 | -0.0617
10 | MAQGSHQIDFQVLHDLRQKFPEVPEVVVSRCMLQNNNNLDACCAVLSQESTRYLYGEGDLNFSDDSGISGLRNHMTSLNLDLQSQNIYHHGREGSRMNGSRTLTHSISDGQLQGGQSNSELFQQEPQTAPAQVPQGFNVFGMSSSSGASNSAPHLGFHLGSKGTSSLSQQTPRFNPIMVTLAPNIQTGRNTPTSLHIHGVPPPVLNSPQGNSIYIRPYITTPGGTTRQTQQHSGWVSQFNPMNPQQVYQPSQPGPWTTCPASNPLSHTSSQQPNQQGHQTSHVYMPISSPTTSQPPTIHSSGSSQSSAHSQYNIQNISTGPRKNQIEIKLEPPQRNNSSKLRSSGPRTSSTSSSVNSQTLNRNQPTVYIAASPPNTDELMSRSQPKVYISANAATGDEQVMRNQPTLFISTNSGASAASRNMSGQVSMGPAFIHHHPPKSRAIGNNSATSPRVVVTQPNTKYTFKITVSPNKPPAVSPGVVSPTFELTNLLNHPDHYVETENIQHLTDPTLAHVDRISETRKLSMGSDDAAYTQALLVHQKARMERLQRELEIQKKKLDKLKSEVNEMENNLTRRRLKRSNSISQIPSLEEMQQLRSCNRQLQIDIDCLTKEIDLFQARGPHFNPSAIHNFYDNIGFVGPVPPKPKDQRSIIKTPKTQDTEDDEGAQWNCTACTFLNHPALIRCEQCEMPRHF [TAB2] | -0.0447 | 0.348
11 | MAHYKAADSKREQFRRYLEKSGVLDTLTKVLVALYEEPEKPNSALDFLKHHLGAATPENPEIELLRLELAEMKEKYEAIVEENKKLKAKLAQYEPPQEEKRAE [MYCBP] | 0.968 | -0.523
